Positions count from the first letter of the chain named. In names and notes the source's numbering stands. One block for each binder: values may come before it.
What was measured:
[1] = molecular target: T1, human CD8A-Fc (recombinant human CD8 alpha fused to Fc fragment of human IgG1) (human, UniProt P01732 22-182, limits assumed); assay: SPR, dissociation rate on recombinant CD8 alpha
T1 construct: SPR ligand, captured by goat anti-human Fc; also called hCD8A-Fc; recombinant CD8 alpha; not shown: linker with flag (and polyhistidine) tag and Fc fragment of human IgG1; depends on which of the two constructs was used
T1 sequence (P01732 22-182 limits assumed): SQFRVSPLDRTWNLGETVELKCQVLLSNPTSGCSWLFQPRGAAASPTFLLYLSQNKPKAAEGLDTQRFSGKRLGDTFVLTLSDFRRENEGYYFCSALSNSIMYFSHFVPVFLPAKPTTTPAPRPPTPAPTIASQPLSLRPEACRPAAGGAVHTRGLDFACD

[2] = molecular target: T1, human CD8A-Fc (recombinant human CD8 …); assay: SPR (ProteOn), captured hCD8A-Fc, heterogeneous ligand fit, lower affinity population
Procedure: (§1) Human CD8A-Fc was then captured at five surface densities ranging from 200 to 1200 response units, leaving the 6th channel as empty channel control for GAH-Fc IgG surface. Binding was measured by flowing five different concentrations of anti-CD8A FN3 domains (1 μM diluted in a 3-fold dilution series) as analytes simultaneously in the horizontal orientation over the captured hCD8A-Fc surfaces, with a sixth analyte channel containing only running buffer PBST. All interactions were measured at 100 uL/min flow rate with association and dissociation times being 4, 30 minutes respectively. […] Data analyses were performed using Bio-Rad ProteOn Manager software (version 3.1.0.6). Raw data were double referenced by subtraction of the interspot (empty chip surface, no protein immobilized or captured) signals to correct the non-specific binding of the FN3 domain to the pre-coated GAH-Fc IgG surface, followed by a double referencing using the buffer blank response (to correct for any baseline drift resulting from ligand dissociation over time). […] Given that the GAH-Fc capture of hCD8A-Fc format is the least disruptive relative to other formats in introducing potential experimental artifacts (such as ligand activity loss and/or artificial eptiopes/heterogeneous ligand population due to amine coupling), it is considered that the results from the GAH-Fc capture experiments reported here represent the most reliable ProteOn SPR data, despite the non-conforming 1:1 Langmuir fits observed in many instances. A heterogeneous ligand model was chosen to fit the data assuming two different ligand species, either due to the heterogeneity in the ligand protein population or due to potential different mechanisms for each FN3 domain binding to the 2 hCD8A monomers in the Fc fusion protein.

[3] = molecular target: T1, human CD8A-Fc (recombinant human CD8 …); assay: SPR (ProteOn), captured hCD8A-Fc, heterogeneous ligand fit, higher affinity population
Procedure: as §1

[4] = molecular target: T1, human CD8A-Fc (recombinant human CD8 …); assay: SPR (ProteOn), captured hCD8A-Fc, heterogeneous ligand fit, lower affinity population; lower affinity population, heterogeneous ligand fit
Procedure: Human CD8A-Fc was then captured at five surface densities ranging from 200 to 1200 response units, leaving the 6th channel as empty channel control for GAH-Fc IgG surface. Binding was measured by flowing five different concentrations of anti-CD8A FN3 domains (1 μM diluted in a 3-fold dilution series) as analytes simultaneously in the horizontal orientation over the captured hCD8A-Fc surfaces, with a sixth analyte channel containing only running buffer PBST. All interactions were measured at 100 uL/min flow rate with association and dissociation times being 4, 30 minutes respectively. […] Data analyses were performed using Bio-Rad ProteOn Manager software (version 3.1.0.6). Raw data were double referenced by subtraction of the interspot (empty chip surface, no protein immobilized or captured) signals to correct the non-specific binding of the FN3 domain to the pre-coated GAH-Fc IgG surface, followed by a double referencing using the buffer blank response (to correct for any baseline drift resulting from ligand dissociation over time). […]

[5] = molecular target: T2, cynomolgus monkey CD8A on cyno CD8+ T cells (cynomolgus monkey, UniProt P01732 23-235 (human entry)); assay: flow cytometry on cyno CD8+ T cells
T2 construct: also called cyno T-cells; Cyno CD8alpha
T2 sequence (P01732 other isoform, or with tags, fused parts or gaps limits assumed): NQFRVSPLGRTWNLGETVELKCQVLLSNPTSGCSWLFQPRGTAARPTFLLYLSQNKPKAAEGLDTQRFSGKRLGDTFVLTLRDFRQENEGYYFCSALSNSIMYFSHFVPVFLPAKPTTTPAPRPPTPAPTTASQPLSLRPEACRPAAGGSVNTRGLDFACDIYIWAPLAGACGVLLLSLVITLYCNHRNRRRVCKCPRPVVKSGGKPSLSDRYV
Procedure: (§2) A full dose response binding curve was generated for the nineteen selected anti-CD8A FN3 domains. Each candidate was diluted to 20 μM in PBS followed by a 1:3 dilution series to generate either an 11-point or an 18-point dose response curve. Human or cyno CD8+ T cells were incubated with the diluted FN3 domain for 1 hour at 4° C. Cells were washed once with PBS and incubated with an anti-centyrin antibody (PAB25) for 1 hour at 4° C. The cells were washed twice with PBS, followed by incubation with a PE-secondary, anti-CD3-PacB, anti-CD4-APC, and a viability dye. Finally, cells were washed and resuspended in PBS for flow cytometric analysis using a BD Canto Instrument. CD8 T cells were defined as live CD3+CD4− cells. Median fluorescence intensity of the bound Centyrins (PE channel) and % of cells showing positive staining calculated using Cytobank software. Results were graphed using Prism and EC₅₀ values were calculated using the 4 parameter dose response variable slope equation.

[6] = molecular target: T3, human CD8A on primary human CD8+ T cells (human, UniProt P01732 22-235); assay: flow cytometry on human CD8+ T cells
T3 construct: whole, on cells; also called Human T-cells; CD8 alpha
T3 sequence (P01732 22-235): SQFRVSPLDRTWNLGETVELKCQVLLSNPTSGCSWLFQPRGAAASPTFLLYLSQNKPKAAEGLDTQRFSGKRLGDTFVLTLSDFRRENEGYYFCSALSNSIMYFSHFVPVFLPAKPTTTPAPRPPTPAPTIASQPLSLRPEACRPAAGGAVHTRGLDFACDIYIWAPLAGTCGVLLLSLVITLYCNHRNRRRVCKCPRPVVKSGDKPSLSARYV
Procedure: as §2

[7] = molecular target: T3, human CD8A on primary human CD8+ T cells; assay: MSD-CAT equilibrium cell binding, primary human CD8 T cells
Procedure: A MesoScale Discovery-Cell Affinity Technology (MSD-CAT) based equilibrium cell-binding assay was performed to determine the affinity of the top six anti-CD8A candidates binding to primary human cytotoxic T cell surface CD8A receptors. Each anti-CD8A FN3 domain at a constant concentration of […] was pre-incubated with 10 different concentrations of primary cytotoxic CD8 T cells (columns 2-11 in a row). Cell viability was checked prior to the binding measurements and a >85% viability was desired for valid analysis. Since these cells were from different donors, in case of donor-to-donor variations, only cells of the same donors were combined together. Each individual anti-CD8A FN3 domain binding was measured in replicates using cells from the same donors. Cells and FN3 domains were incubated overnight at 4° C. on a rotator to reach equilibrium. Following the incubation the cells were spun down along with cell bound anti-CD8A FN3 domains and the unbound (free) anti-CD8A FN3 domains in the supernatants is quantified using MSD assays where biotinylated recombinant hCD8A-Fc protein was captured at 0.6 ug/mL in assay buffer to streptavidin MSD plates overnight ˜16 hours at 4° C. After blocking the plate, supernatant with free anti-CD8A FN3 domains was added to the plate and incubated for 1 hr, then followed by SulfoTag pAb139 (In-house) detection at 1.6 ug/ml. A buffer control without any FN3 domain and hCD8A (plate background binding control) in column 1 and FN3 domain alone control without hCD8A (100% free/unbound) in column 12 were included. Mouse Anti-hCD8A mAb (mIgG1k, BD Biosciences, cat #555364, clone RPA-T8) was included as a positive control. Tencon27 was included in the initial assay validation as a negative control and no significant binding was observed, and therefore, was not included in the later cell binding due to the cell availability. Plates were read immediately on the MSD Sector Imager 6000™ Reader for luminescence levels after adding MSD Read Buffer by diluting 1:4 of stock into H2O.
Raw MSD data were exported and analysed in Prism using a non-linear fit with variable slope function to derive the Bmax and Hillslope values. Only those with converged Bmax values and hillslope within the range of −1.5˜−0.5 (ideal −1.0) will be considered for further analysis.

human CD8A on cells = molecular target: T4, human CD8A on cells (human, UniProt P01732 22-235); assay: MSD-CAT equilibrium cell-binding assay on primary human cytotoxic CD8 T cells
T4 construct: whole, on cells; also called CD8A receptors on primary human cytotoxic T cells
T4 sequence (P01732 22-235): as above
Procedure: A MesoScale Discovery-Cell Affinity Technology (MSD-CAT) based equilibrium cell-binding assay was performed to determine the affinity of the top six anti-CD8A candidates binding to primary human cytotoxic T cell surface CD8A receptors. Each anti-CD8A FN3 domain at a constant concentration of […] was pre-incubated with 10 different concentrations of primary cytotoxic CD8 T cells (columns 2-11 in a row). Cell viability was checked prior to the binding measurements and a >85% viability was desired for valid analysis. Since these cells were from different donors, in case of donor-to-donor variations, only cells of the same donors were combined together. Each individual anti-CD8A FN3 domain binding was measured in replicates using cells from the same donors. […] Following the incubation the cells were spun down along with cell bound anti-CD8A FN3 domains and the unbound (free) anti-CD8A FN3 domains in the supernatants is quantified using MSD assays where biotinylated recombinant hCD8A-Fc protein was captured at 0.6 ug/mL in assay buffer to streptavidin MSD plates overnight ˜16 hours at 4° C. […] Plates were read immediately on the MSD Sector Imager 6000™ Reader for luminescence levels after adding MSD Read Buffer by diluting 1:4 of stock into H2O.
Raw MSD data were exported and analysed in Prism using a non-linear fit with variable slope function to derive the Bmax and Hillslope values. […]

B1: P282DR9P1359_F5 (designed binder)
chain: LPAPKNLVVSRVTEDSARLSWTAPDAAFDSFQIAYPEWPPPGEAIVLTVPGSERSYDLTGLKPGTEYFVIIQGVKGGVESWPLSAIFTT
notes: FN3 domain (Centyrin); purified as His-tagged protein, tag not in the entry
koff [1]: 5.78e-05 s⁻¹
koff [2]: 6.6e-05 s⁻¹
kon [2]: 34800 M⁻¹ s⁻¹
Kd [3]: 0.04 nM
koff [3]: 1.42e-05 s⁻¹
kon [3]: 380000 M⁻¹ s⁻¹
Kd [4]: 6.6 nM

B2: CD8S367 (designed binder)
chain: B1 chain with Q32A, P41Q, E53C, I70V, Q72Y, V78S, E79Y, W81A
notes: P282DR9P1359_F7 with E54C; the entry holds the mutation
EC50 [5]: 50.8 nM
EC50 [6]: 194 nM
Kd [7]: 0.225 nM

B6: CD8S365 (designed binder)
chain: LPAPKNLVVSRVTEDSARLSWTAPDAAFDSFGILYYEPVDSGEAITLPVPGSCRSYDLTGLKPGTEYWVVITGVKGGAPSTPLGTIFTT
notes: P282ER9P1360_C8 with E54C; the entry holds the mutation
EC50 [5]: 124 nM
EC50 [6]: 556 nM
Kd [7]: 0.167 nM

B7: Tencon27 (designed binder)
chain: LPAPKNLVVSRVTEDSARLSWTAPDAAFDSFLIQYQESEKVGEAIVLTVPGSERSYDLTGLKPGTEYTVSIYGVKGGHRSNPLSAIFTT
notes: negative control scaffold; also called Stabilized Tencon
binding result (human CD8A on cells): no binding

Now from value to binder:

EC50 [5]: 70 nM
EC50 [6]: 155 nM
Kd [7]: 0.459 nM
B3: CD8S368 (designed binder)
chain: B1 chain with E53C
notes: P282DR9P1359_F5 with E54C; the entry holds the mutation

EC50 [5]: 67.6 nM
EC50 [6]: 209 nM
Kd [7]: 0.869 nM
B4: CD8S370 (designed binder)
chain: LPAPKNLVVSRVTEDSARLSWTAPDAAFDSFAITYIEKEHIEDGEAIVLTVPGSCRSYDLTGLKPGTEYWVPIWGVKGGANSWPLSAIFTT
notes: P282DR9P1359_G7 with E54C; the entry holds the mutation

EC50 [5]: 72.3 nM
EC50 [6]: 124 nM
Kd [7]: 2.81 nM
B5: CD8S369 (designed binder)
chain: LPAPKNLVVSRVTEDSARLSWAKRPGAFDSFLIQYQESEKVGEAIVLTVPGSCRSYDLTGLKPGTEYTVSIYGVDVKYDIDSRPISSNPLSAIFTT
notes: P283AR9P1362_D6 with E54C; the entry holds the mutation

EC50 [5]: 69.5 nM
EC50 [6]: 163 nM
Kd [7]: 0.123 nM
B8: CD8S366 (designed binder)
chain: LPAPKNLVVSRVTEDSARLSWTAPDAAFDSFWITYPEWPDPGGEAIVLTVPGSCRSYDLTGLKPGTEYFVVIYGVKGGEIYSPLSAIFTT
notes: P282DR9P1359_C5 with E54C; the entry holds the mutation

— US20210032312A1 (Janssen / Centocor, published 2021)
